Test results published in PMC8770954 (2021).
Numbering of substitutions follows the chain as printed. No end group written: not given here.

B1: DH677.3 (human IgG1) (antibody, V domains shown)
VH: QVQLVQSGAEVQKPGASVKVSCKASGYTFASYDINWVRQATGQGLEWMGWMNPKTGNTGYAQKFQGRVTLTRNTSISTAYMELTSLRSEDTAVYYCATYRIIAAVGYRYFQYWGQGTLVTVSS
VL: DIQLTQSPSSLSASVGDSVTITCRASQGFGNYLAWYQQRPGKVPEVLIYAATTLQSGVPSRFSGSGSGTDFTLTISSLQPEDVATYYCQKYNSAPFTFGQGTRLEIK
B2: RhDH677.3 IgG1 (antibody, V domains shown)
VH: B1 VH with Q12K, V20L, A30T, T41P, L70M, N73D, I76T, T84S, T117A
VL: B1 VL with D1A, L4M, S18K, R39K, E45K, V46L, G57E
B3: DH827 (human IgG1) (antibody, V domains shown)
VH: EVQLVESGGGVVQPGRSLRLSCAASGFTFSNCAMHWVRQAPGKGLEWVAVISYHGSNKYYADYVKGRFTISRDNSKSTVYLQMNSPRAEDTAVYYCAKEGGAPSGWALDYWGQGTLVTVSS
VL: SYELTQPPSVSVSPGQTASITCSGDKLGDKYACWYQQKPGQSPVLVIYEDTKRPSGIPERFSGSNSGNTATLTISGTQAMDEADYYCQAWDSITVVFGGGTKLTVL
B4: RhDH827 IgG1 (antibody, V domains shown)
VH: EVQLVESGGGLVQPGGSLRLSCAASGFTFSNCAMHWVRQAPGKGLEWVAVISYHGSNKYYADYVKGRFTISRDNSKNMLYLQMNNLKLEDTAVYYCAREGGAPSGWALDYWGQGVLVTVSS
VL: SYELTQSPSVSVSPGQPASITCSGDKLGDKYACWYQQKPGQVPVLVIYEDTKRPSGIPERFSGSNSGNTATLTISGVEAGDEADYYCQAWDSITHVVFGGGTRLTVL
B5: RM JR4 IgG1 (antibody, V domains shown)
VH: EVQLVESGPGLVKPLETLSLTCAVPGGSIRRNYWSWIRQPPGKGLEWIGHSYGSGGSTNYNPSLESRVTLSVDTSKNLFSLKLTSVTAADTAVYYCARTVWYYTSGTHYFDHWGQGVLVTVSS
VL: QSVLTQPPSVSAAPGQKVTISCSGSSSNIGRSYVSWYQQVPGAAPKLLIYDTNKRPSGVSDRFSGSKSGSSASLAITGLQTGDEADYYCGAWDGSLNVHIFGSGTKLTVL
B6: Rh7B2 IgG1 (antibody, V domains shown)
VH: EVQLVESGGGLVQPGGSLRLSCAASGFTFTEYYMSWVRQAPGKGLEWVSYISKNGEYSYYADSVKGRFTISRDNAKNSLSLQMSSLRAEDTAVYYCTRADGLTYFSELLQYIFDLWGQGVLVTVSS
VL: DIVMTQSPDSLAVSLGERVTINCKSSQTLLYSSNNRHSIAWYQQKPGQAPKLLIYWASMRLSGVPNRFSGSGSGTDFTLTISGLQAEDVAVYYCHQYSSHPPTFGQGTKVEIK
B7: synthetic gp41 peptide (residues 596-606) with C-terminal amidation (peptide)
chain: WGCSGKLICTT-NH2
modifications: ends and bridges not checked

How the values were obtained:
Experiment in all cases: SPR
[1] = biological target: monomeric full length single chain (FLSC), a covalent dimer of gp120BaL and CD4 (HIV-1 BaL | , UniProt P01730)
[2] = biological target: T1, V2 peptide corresponding to the clade A/E 92TH023 gp120 V2 loop sequence (residues 167-184) (HIV-1 clade A/E 92TH023)
[3] = biological target: T1, V2 peptide corresponding to the clade …; remark: listed apart in the source
[4] = biological target: B7
[5] = biological target: B7
7B2 = biological target: 7B2

How did the Kd [1] turn out when B1 was run?
Its Kd is 0.29 nM.

And the koff [1]?
The koff was 4.05e-05 s⁻¹.

Which Kd [1] does the source give for B2 here?
The Kd was 2.54 nM.

What about the koff [1] of the same binder?
Its koff is 0.000189 s⁻¹.

Which Kd [2] does the source give for B3 here?
The Kd was 3800 nM.

And the koff [3]?
Its koff is 0.0069 s⁻¹.

Which results are given for B4?
Kd [2]: 2730 nM; koff [3]: 0.000486 s⁻¹

Which results are given for B5?
Kd [1]: 0.85 nM; koff [1]: 0.00013 s⁻¹

What does the source list for B6?
Kd [4]: 583 nM; koff [5]: 0.000534 s⁻¹

Which results are given for B7?
Kd (7B2): 634 nM; koff (7B2): 0.000654 s⁻¹
